# Marks after values point to notes of the source that are not given here.
# B1: 21B12: human anti-PCSK9 monoclonal antibody, light/heavy variable region SEQ ID NO 23/49 (antibody, listed as Homo sapiens, V domains shown)
# VH: QVQLVQSGAEVKKPGASVKVSCKASGYTLTSYGISWVRQAPGQGLEWMGWVSFYNGNTNYAQKLQGRGTMTTDPSTSTAYMELRSLRSDDTAVYYCARGYGMDVWGQGTTVTVSS
# VL: QSALTQPASVSGSPGQSITISCTGTSSDVGGYNSVSWYQQHPGKAPKLMIYEVSNRPSGVSNRFSGSKSGNTASLTISGLQAEDEADYYCNSYTSTSMVFGGGTKLTVL
# Assays:
# PCSK9 [1] = target: T1, PCSK9 (Homo sapiens, UniProt Q8NBP7); test: Phase 1 ascending single dose study in healthy subjects; assay type: in vivo
# T1 construct: endogenous in cells; host or cells: human subjects, in vivo
# PCSK9 [2] = target: T1, PCSK9; test: 12 week study in heterozygous familial hypercholesterolemia (Example 22); assay type: in vivo; details: HeFH, preliminary
# Experimental: This study is a double-blind, randomized, stratified, placebo-controlled clinical trial evaluating the safety, tolerability, and efficacy of monocloncal antibody 21B12 in subjects having a diagnosis of HeFH. A total enrollment of 150 subjects is planned. […] Randomization will be stratified by screening LDL-C level (<130 mg/dL [3.4 mmol/L] vs ≥130 mg/dL) and ezetimibe use at baseline (yes vs no). Randomization should occur within 5-10 days of the screening LDL-C evaluation used to determine eligibility. Monoclonal antibody, 21B12, and placebo will be blinded. Study visits are at weeks 2, 4, 8, and 12. […] The end-of-study (EOS) visit and the last evaluation of lipids is at week 12.
# Males and females, ≥18 to ≤75 years of age, and with a diagnosis of heterozygous familial hypercholesterolemia by the diagnostic criteria of the Simon Broome Register Group (SBRG), are eligible for this study. For enrollment, subjects must be on an approved statin, with stable dose(s) for all allowed (eg, ezetimibe, bile-acid sequestering resin, stanols, or regulatory-approved and marketed niacin (eg, Niaspan or Niacor)) lipid-regulating drugs for at least
# 4 weeks before LDL-C screening and, in the opinion of the investigator, not requiring uptitration. Fasting LDL-C must be ≥100 mg/dL (2.6 mmol/L) and fasting triglycerides ≤400 mg/dL (4.5 mmol/L) by central laboratory at screening.
# PCSK9 [3] = target: T1, PCSK9; test: 12 week monotherapy dose-ranging study, Framingham risk 10% or less (Example 24); assay type: in vivo; details: for Treatment difference vs ezetimibe in LDL-C percent change, week 12 / Treatment difference vs placebo in LDL-C percent change, week 12: P < 0.001; for mean percent reduction from baseline in LDL-C: monotherapy, preliminary
# Experimental: Ezetimibe was not blinded. The end-of-study visit and the last estimation of lipids was at week 12 for subjects on Q4W IP schedule or on ezetimibe and week 14 for subjects on Q2W IP schedule.
# Males and females, ≥18 to ≤75 years of age, were eligible for this study. Fasting LDL-C was ≥100 mg/dL (2.6 mmol/L) and ≤190 mg/dL (4.9 mmol/L) and fasting triglycerides ≤400 mg/dL (4.5 mmol/L) by central laboratory at screening.
# The primary endpoint was the percent change from baseline in LDL-C at week 12. Secondary endpoints included percent changes in apolipoprotein B (ApoB), lipoprotein (a) (Lp(a)), and in the ratio of total cholesterol to high-density lipoprotein (HDL)-C. Tolerability and safety were also evaluated.
# LDLR = LDLR levels in HepG2 and HepG2-PCSK9 cells with mevinolin (immunoblot); assay type: cell-based, human; details: 48 hours
# Experimental: HepG2 cells were seeded in DMEM with 10% fetal bovine serum (FBS) and grown to ˜90% confluence. The cells were treated with indicated amounts of mevinolin (a statin, Sigma) and PCSK9 ABPs (FIGS. 12A-12C) in DMEM with 3% FBS for 48 hours. Total cell lysates were prepared. […] of total proteins were separated by gel electrophoresis and transferred to PVDF membrane. Immunoblots were performed using rabbit anti-human LDL receptor antibody (Fitzgerald) or rabbit anti-human b-actin antibody. The enhanced chemiluminescent results are shown in the top panels of FIGS. 12A-12C. The intensity of the bands were quantified by ImageJ software and normalized by b-actin. The relative levels of LDLR are shown in the lower panels of FIGS. 12A-12C.
# HepG2-PCSK9 cells were also created. These were stable HepG2 cell line transfected with human PCSK9. The cells were seeded in DMEM with 10% fetal bovine serum (FBS) and grew to ˜90% confluence. The cells were treated with indicated amounts of mevinolin (Sigma) and PCSK9 ABPs (FIGS. 12D-12F) in DMEM with 3% FBS for 48 hours. Total cell lysates were prepared. […] of total proteins were separated by gel electrophoresis and transferred to PVDF membrane Immunoblots were performed using rabbit anti-human LDL receptor antibody (Fitzgerald) or rabbit anti-human b-actin antibody. […] The intensity of the bands were quantified by ImageJ software and normalized by b-actin.
# [4] = 350 mg Q4W SC, end of dosing interval
# T1 sequence (Q8NBP7 153-692): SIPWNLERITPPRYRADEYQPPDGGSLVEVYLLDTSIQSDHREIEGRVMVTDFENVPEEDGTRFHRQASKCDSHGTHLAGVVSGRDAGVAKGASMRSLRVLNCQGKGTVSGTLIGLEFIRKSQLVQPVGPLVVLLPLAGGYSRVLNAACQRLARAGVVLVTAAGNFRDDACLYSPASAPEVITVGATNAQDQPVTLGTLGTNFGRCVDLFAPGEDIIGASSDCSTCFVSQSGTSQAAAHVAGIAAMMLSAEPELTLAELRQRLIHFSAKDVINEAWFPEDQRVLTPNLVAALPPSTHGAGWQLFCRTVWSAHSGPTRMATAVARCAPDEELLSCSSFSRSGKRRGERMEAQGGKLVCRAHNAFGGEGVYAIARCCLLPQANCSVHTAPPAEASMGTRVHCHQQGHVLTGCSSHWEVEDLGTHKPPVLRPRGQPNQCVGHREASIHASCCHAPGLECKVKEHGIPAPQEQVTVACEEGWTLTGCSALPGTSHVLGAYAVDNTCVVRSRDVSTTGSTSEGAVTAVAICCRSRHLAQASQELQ
molecule,measurement,setting,value
B1,median AUC0-inf,PCSK9 [1]; 420 mg IV,1550 µg·days/mL
same,median maximum observed concentration (Cmax),PCSK9 [1]; 420 mg IV,139 µg/mL
same,anti-21B12 antibodies in serum,PCSK9 [1]; all 42 subjects who received 21B12,negative for anti-21B12 antibodies
same,subjects with treatment-emergent adverse events,"PCSK9 [1]; any dose, 29 of 42 subjects",69%
same,"effects on laboratory variables, ECGs, vital signs","PCSK9 [1]; human, in vivo",no trends indicative of clinically important effects
same,LDL-C nadir observed after dosing,"PCSK9 [1]; single dose, healthy subjects",≤ 2 weeks
same,suppression of PCSK9,PCSK9 [1]; single doses ≥70 mg SC,Complete suppression of PCSK9
same,LS mean percent increase from baseline in HDL-C,PCSK9 [2]; [4],15.39%
same,LS mean percent reduction from baseline in LDL-C,PCSK9 [2]; [4],38.46%
same,LS mean percent reduction from baseline in Lp(a),PCSK9 [2]; [4],21.69%
same,LS mean percent reduction from baseline in VLDL-C,PCSK9 [2]; [4],17.16%
same,LS mean percent reduction from baseline in non-HDL cholesterol,PCSK9 [2]; [4],36.16%
same,LS mean percent reduction from baseline in total cholesterol,PCSK9 [2]; [4],24.82%
same,LS mean percent reduction from baseline in triglycerides,PCSK9 [2]; [4],17.24%
same,LS mean percent increase from baseline in HDL-C,PCSK9 [2]; 420 mg Q4W SC,6.77%
same,LS mean percent reduction from baseline in LDL-C,PCSK9 [2]; 420 mg Q4W SC,45.68%
same,LS mean percent reduction from baseline in Lp(a),PCSK9 [2]; 420 mg Q4W SC,28.23%
same,LS mean percent reduction from baseline in VLDL-C,PCSK9 [2]; 420 mg Q4W SC,18.49%
same,LS mean percent reduction from baseline in non-HDL cholesterol,PCSK9 [2]; 420 mg Q4W SC,41.81%
same,LS mean percent reduction from baseline in total cholesterol,PCSK9 [2]; 420 mg Q4W SC,29.45%
same,LS mean percent reduction from baseline in triglycerides,PCSK9 [2]; 420 mg Q4W SC,4.56%
same,"Least squares mean percent change from baseline in LDL-C, week 12",PCSK9 [3]; 70 mg Q2W SC (N = 45),−40.98%
same,"Treatment difference vs ezetimibe in LDL-C percent change, week 12",PCSK9 [3]; 70 mg Q2W SC,−26.73* %
same,"Treatment difference vs placebo in LDL-C percent change, week 12",PCSK9 [3]; 70 mg Q2W SC,−37.27* %
same,mean percent reduction from baseline in LDL-C,"PCSK9 [3]; 70 mg Q2W SC, end of dosing interval",41.21%
same,"Least squares mean percent change from baseline in LDL-C, week 12",PCSK9 [3]; 105 mg Q2W SC (N = 46),−43.87%
same,"Treatment difference vs ezetimibe in LDL-C percent change, week 12",PCSK9 [3]; 105 mg Q2W SC,−29.62* %
same,"Treatment difference vs placebo in LDL-C percent change, week 12",PCSK9 [3]; 105 mg Q2W SC,−40.17* %
same,mean percent reduction from baseline in LDL-C,"PCSK9 [3]; 105 mg Q2W SC, end of dosing interval",45.44%
same,"Least squares mean percent change from baseline in LDL-C, week 12",PCSK9 [3]; 140 mg Q2W SC (N = 45),−50.93%
same,"Treatment difference vs ezetimibe in LDL-C percent change, week 12",PCSK9 [3]; 140 mg Q2W SC,−36.68* %
same,"Treatment difference vs placebo in LDL-C percent change, week 12",PCSK9 [3]; 140 mg Q2W SC,−47.23* %
same,mean percent reduction from baseline in LDL-C,PCSK9 [3]; 140 mg Q2W SC,51.56%
same,"Least squares mean percent change from baseline in LDL-C, week 12",PCSK9 [3]; 280 mg Q4W SC (N = 45),−39.02%
same,"Treatment difference vs ezetimibe in LDL-C percent change, week 12",PCSK9 [3]; 280 mg Q4W SC,−25.17* %
same,"Treatment difference vs placebo in LDL-C percent change, week 12",PCSK9 [3]; 280 mg Q4W SC,−43.57* %
same,mean percent reduction from baseline in LDL-C,"PCSK9 [3]; 280 mg Q4W SC, end of dosing interval",37.53%
same,"Least squares mean percent change from baseline in LDL-C, week 12",PCSK9 [3]; 350 mg Q4W SC (N = 45),−43.20%
same,"Treatment difference vs ezetimibe in LDL-C percent change, week 12",PCSK9 [3]; 350 mg Q4W SC,−29.34* %
same,"Treatment difference vs placebo in LDL-C percent change, week 12",PCSK9 [3]; 350 mg Q4W SC,−47.74* %
same,mean percent reduction from baseline in LDL-C,PCSK9 [3]; [4],42.16%
same,"Least squares mean percent change from baseline in LDL-C, week 12",PCSK9 [3]; 420 mg Q4W SC (N = 45),−47.98%
same,"Treatment difference vs ezetimibe in LDL-C percent change, week 12",PCSK9 [3]; 420 mg Q4W SC,−34.14* %
same,"Treatment difference vs placebo in LDL-C percent change, week 12",PCSK9 [3]; 420 mg Q4W SC,−52.53* %
same,mean percent reduction from baseline in LDL-C,PCSK9 [3]; 420 mg Q4W SC,47.52%
same,change in LDL-C from baseline to week 12 greater than with placebo,PCSK9 [3]; final data,up to 72 mg/dL
same,mean reduction from baseline for ApoB,PCSK9 [3]; final data,up to 44%
same,mean reduction from baseline for Lp(a),PCSK9 [3]; final data,up to 29%
same,LDL-C reductions from baseline greater than ezetimibe,"PCSK9 [3]; week 12, final data",37%
same,least-squares (LS) mean percent reduction from baseline in LDL-C,"PCSK9 [3]; week 12, final data, across dose regimens",up to 51%
same,LDLR levels compared with the non-neutralizer 25A7.1,LDLR,greater increase in LDLR levels

# Reference: patent publication US12612465B2, “Formulations comprising PCSK9 specific monoclonal antibodies” (Amgen Inc., priority 2012, dated 2026)
